The results in this text go back to patent US7439329B2, “GEF-H1b: biomarkers, complexes assays and therapeutic uses thereof” (Sugen, Inc., priority 2002, dated 2008).

What all share (assay type): cell-based, mouse
The test system of test [1] is NIH-3T3 cells. Briefly: Morphology and localization in transfected NIH-3T3 cells (EGFP fluorescence, F-actin and microtubule staining). How it is done:
To analyse the effect of GEF-H1 on cell morphology in fibroblasts, EGFP (enhanced green fluorescent protein) fusion constructs of GEF-H1S and a series of mutant alleles of the PAK4 phosphorylation sites in GEF-H1S were introduced into NIH-3T3 cells. Also constructed, was a dominant negative allele by mutating the DH domain of GEF-H1 resulting in GEF-H-QR312,313MG. In a p21-binding domain (PBD) assay this dominant-negative allele inhibited accumulation of Rac-GTP but not Cdc42-GTP in NIH-3T3 cells. The actin cytoskeleton was stained with coumarin-phallicidin to contrast F-actin structures of EGFP fluorescing cells by microscopy.
Induction of F-actin structures in fibroblasts, namely the formation of filopodia, lamellipodia, and stress fibres is due to signalling by the active forms of Cdc42, Rac, and Rho, respectively. Because PAK proteins and specifically PAK4 play a role in regulating F-actin based morphological structures, experiments were devised to determine whether PAK4-induced changes in cell morphology were mediated by regulation of GEF-H1S. Also co-expressed were EGFP-GEF-H1 constructs with various HA epitope-tagged PAK4 alleles in NIH-3T3 cells. Exogenous PAK4 was detected with an anti-HA antibody (red) and the actin cytoskeleton was stained with coumarin-phallicidin (blue). Although NIH-3T3 cells have low but detectable levels of endogenous PAK4 and GEF-H1 these were not activated under the conditions of the experiment.
Residues phosphorylated by PAK4 in GEF-H1S are conserved in the MT (“microtubule”) bound form of GEF-H1, “GEF-H1M.” GEF-H1M contains a zinc finger domain in its amino terminus that allows it to bind to microtubules. The role microtubule binding in determining the ability of PAK4 to control GEF-H1M activity was investigated. Studies were performed with GEF-H1M that allowed simultaneous examination of both MT (through EGFP-GEF-H1M labelling of MTs in vivo) and actin cytoskeleton (through F-actin staining with coumarin-phallicidin). Also studied, were changes in the MT cytoskeleton by co-staining with β-tubulin antibodies.
GEF-H1S alleles were transiently expressed in NIH-3T3 cells or simultaneously expressed with PAK4 alleles. The GEF-H1S alleles were retrieved from the pcDNA vector by restriction with EcoR1 and Xho1 and inserted into pEGFP-C1 (Clontech,USA Cat#6082-1) restricted with EcoR1 and Sal1. The resulting protein was a hybrid of the brightly fluorescent protein, green fluorescent protein (GFP). The effects on cell morphology were traced by staining of F-actin with coumarin phallacidin (Molecular Probes, USA, Cat. # C-606). […] See, Callow et al., 2002. This finding was consistent with GEF-H1S being a substrate for PAK4, because activated PAK4 is also localized to the Golgi apparatus.
NIH-3T3, 293T, A549, HCT116 and H1299 cells were maintained in Dulbecco's modified Eagles medium (DMEM) 10% Fetal Bovine serum (FBS), penicillin and streptomycin from Invitrogen (Carlsbad, Calif.). For transfection, cells were seeded at 10^5 cells ml-1 for NIH-3T3 and […] for both 293T and H1299 unless otherwise stated. Transfection reagents Lipofectamine 2000 (Invitrogen) or Fugene (Roche Molecular) were used at […] of plasmid DNA. Cellular extracts for immunoblotting were prepared in lysis buffer. For immunoprecipitation experiments lysates were incubated with Protein G beads (Pharmacia) linked with appropriate antibody, glutathione sepharose beads (Pharmacia) with appropriate GST fusion protein and streptavidin beads (Pierce) linked to appropriate biotinylated peptides. For immunofluorescence, coverslips were placed in 24 well cell culture vessels and seeded at the densities above. Transfections took place after 16 h and unless otherwise stated were maintained in Optimem or DMEM with 0.2% FBS for 24 h until fixation. Microscopy was performed on a Nikon E800 microscope with 60× objective (1.5NA). […]

Test [2] has as its system NIH-3T3 cells. As to the kind of experiment: Anchorage independent survival and proliferation (XTT assay). To be noted: over-expression in NIH-3T3; vessels which prevent adherence. How it is done:
A stably expressing clone designated 192.58 containing GEF-H1S was established in the mouse fibroblast cell line, NIH-3T3. The pRSV/Rc subcloned vector expresses the GEF-H1S protein in tissue culture cells.
The GEF-H1S clones were plated in tissue culture vessels which prevent adherence. […] The ability for cells to proliferate was measured using the tetrazolium salt XTT based assay (Roche Molecular Biochemicals Cat# 1465015) which measured only metabolically active cells in culture. Measurements were made over a time course.
For orientation: Formazan colour is commonly taken as a measure of viable cells.

Test [3] concerns NIH-3T3 cells. As to the kind of experiment: In vitro transformation (foci) assay.
[4] abbreviates: GEF-H1 allele alone, majority of transfected cells.
Setting [5] is: co-expressed with PAK4 allele PAK4.
Setting [6] is: co-expressed with PAK4 allele PAK4K350,351A.
Setting [7] is: co-expressed with PAK4 allele PAK4S474E.

B1: GEF-H1S: novel GEF-H1 splice isoform, residues 1-921, lacking N-terminal zinc finger domain (SEQ ID NO. 2) (protein)
chain: MPVTRASQPRKPSSAQQQKAALLKNNTALQSVSLRSKTTIRERPSSAIYPSDSFRQSLLGSRRGRSSLSLAKSVSTTNIAGHFNDESPLGLRRILSQSTDSLNMRNRTLSVESLIDEAEVIYSELMSDFEMDEKDFAADSWSLAVDSSFLQQHKKEVMKQQDVIYELIQTELHHVRTLKIMTRLFRTGMLEELHLEPGVVQGLFPCVDELSDIHTRFLSQLLERRRQALCPGSTRNFVIHRLGDLLISQFSGPSAEQMCKTYSEFCSRHSKALKLYKELYARDKRFQQFIRKVTRPAVLKRHGVQECILLVTQRITKYPLLISRILQHSHGIEEERQDLTTALGLVKELLSNVDEGIYQLEKGARLQEIYNRMDPRAQTPVPGKGPFGREELLRRKLIHDGCLLWKTATGRFKDVLVLLMTDVLVFLQEKDQKYIFPTLDKPSVVSLQNLIVRDIANQEKGMFLISAAPPEMYEVHTASRDDRSTWIRVIQQSVRTCPSREDFPLIETEDEAYLRRIKMELQQKDRALVELLREKVGLFAEMTHFQAEEDGGSGMALPTLPRGLFRSESLESPRGERLLQDAIREVEGLKDLLVGPGVELLLTPREPALPLEPDSGGNTSPGVTANGEARTFNGSIELCRADSDSSQRDRNGNQLRSPQEEALQRLVNLYGLLHGLQAAVAQQDTLMEARFPEGPERREKLCRANSRDGEAGRAGAAPVAPEKQATELALLQRQHALLQEELRRCRRLGEERATEAGSLEARLRESEQARALLEREAEEARRQLAALGQTEPLPAEAPWARRPVDPRRRSLPAGDALYLSFNPPQPSRGTDRLDLPVTTRSVHRNFEDRERQELGSPEERLQDSSDPDTGSEEEGSSRLSPPHSPRGETLAETWTRDFTRMQDIPEETESRDGEAVASES
With B1, the F-actin entry in the test on NIH-3T3 cells [1] (setting [4]) is on record as “occassional stress fibers”; with NIH-3T3 cells [1] (setting [5]) it was “extreme filopodia”; in the test with NIH-3T3 cells [1] (setting [6]), “stress fibers”; in the test with NIH-3T3 cells [1] (setting [7]), “peripheral lammellipodia”. The Microtubule result is listed as “radial array” in the test on NIH-3T3 cells [1] (setting [4]), “radial array” in the test on NIH-3T3 cells [1] (setting [5]), “radial array” with NIH-3T3 cells [1] (setting [6]) and “disorganized” in the test with NIH-3T3 cells [1] (setting [7]). Further, the cell morphology result is “polarized” with NIH-3T3 cells [1] (setting [4]), “contracted” in the test with NIH-3T3 cells [1] (setting [5]), “elongated” with NIH-3T3 cells [1] (setting [6]) and “polarized” with NIH-3T3 cells [1] (setting [7]). The subcellular localization entry in the test on NIH-3T3 cells [1] (GFP fusion transiently expressed in NIH-3T3 cells) is on record as “localized at the perinuclear region of the Golgi apparatus”. Also, the “anchorage independent survival and proliferation” value in the test with NIH-3T3 cells [2] is “anchorage independent”. For the same molecule, in the test with NIH-3T3 cells [3] (NIH-3T3 cells), the foci induction result was “able to induce foci”. Moreover, the “effect on foci in co-transformation with activated Ras” value in the test on NIH-3T3 cells [3] (co-transformation with activated Ras, titrations) is given as “synergizes with activated Ras”.
